Source: article PMC4957052 (The Journal of Biological Chemistry, 2016)

Target: T1, M. musculus αT-catenin (wild type, full length) (M. musculus, UniProt Q65CL1 1-895)
T1 construct: Cloned into pGEX-TEV; cleaved from GST with tobacco etch virus protease; also called αT (testes)-catenin; WT αT-catenin; source: E. coli BL21(DE3), purified (glutathione-agarose, TEV cleavage, Mono Q, S200 gel filtration)
T1 sequence (looked up): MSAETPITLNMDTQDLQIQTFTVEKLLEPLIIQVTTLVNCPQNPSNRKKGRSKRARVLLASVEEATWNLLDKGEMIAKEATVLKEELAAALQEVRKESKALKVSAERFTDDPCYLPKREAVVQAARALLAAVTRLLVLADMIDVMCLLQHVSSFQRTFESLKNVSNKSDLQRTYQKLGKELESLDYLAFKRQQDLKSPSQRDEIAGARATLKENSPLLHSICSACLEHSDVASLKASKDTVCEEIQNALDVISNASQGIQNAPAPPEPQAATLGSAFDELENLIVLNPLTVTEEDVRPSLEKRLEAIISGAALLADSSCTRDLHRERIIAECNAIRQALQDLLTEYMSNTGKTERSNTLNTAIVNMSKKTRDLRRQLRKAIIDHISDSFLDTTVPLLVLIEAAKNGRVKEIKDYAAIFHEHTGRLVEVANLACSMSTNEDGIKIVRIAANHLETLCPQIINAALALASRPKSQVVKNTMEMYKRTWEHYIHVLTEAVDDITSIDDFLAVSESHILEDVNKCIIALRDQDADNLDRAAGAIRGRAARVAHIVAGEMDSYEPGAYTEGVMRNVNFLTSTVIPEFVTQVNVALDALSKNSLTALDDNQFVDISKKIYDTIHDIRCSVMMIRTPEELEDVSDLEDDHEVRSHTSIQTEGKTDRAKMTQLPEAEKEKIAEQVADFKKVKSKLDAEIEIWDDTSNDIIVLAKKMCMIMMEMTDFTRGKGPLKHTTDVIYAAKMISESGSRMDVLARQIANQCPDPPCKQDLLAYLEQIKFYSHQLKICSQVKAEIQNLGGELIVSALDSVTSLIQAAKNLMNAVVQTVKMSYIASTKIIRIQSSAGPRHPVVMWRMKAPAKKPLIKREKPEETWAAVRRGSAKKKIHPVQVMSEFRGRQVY
Assay: pull-down; 1-15 μg αT-catenin or V94D added to 15 μg GST-β-catenin on glutathione-agarose in 20 mM Tris pH 8, 150 mM NaCl, 5 mM DTT; >2 h at 4 °C (legend: 1 h at room temperature); five washes in PBS + 0.05% Tween 20, 5 mM DTT; Coomassie
Conditions: both partners purified

binding result: binds
B1: GST-tagged full-length β-catenin (natural protein, mouse, UniProt Q02248 1-781, looked up)
chain: MATQADLMELDMAMEPDRKAAVSHWQQQSYLDSGIHSGATTTAPSLSGKGNPEEEDVDTSQVLYEWEQGFSQSFTQEQVADIDGQYAMTRAQRVRAAMFPETLDEGMQIPSTQFDAAHPTNVQRLAEPSQMLKHAVVNLINYQDDAELATRAIPELTKLLNDEDQVVVNKAAVMVHQLSKKEASRHAIMRSPQMVSAIVRTMQNTNDVETARCTAGTLHNLSHHREGLLAIFKSGGIPALVKMLGSPVDSVLFYAITTLHNLLLHQEGAKMAVRLAGGLQKMVALLNKTNVKFLAITTDCLQILAYGNQESKLIILASGGPQALVNIMRTYTYEKLLWTTSRVLKVLSVCSSNKPAIVEAGGMQALGLHLTDPSQRLVQNCLWTLRNLSDAATKQEGMEGLLGTLVQLLGSDDINVVTCAAGILSNLTCNNYKNKMMVCQVGGIEALVRTVLRAGDREDITEPAICALRHLTSRHQEAEMAQNAVRLHYGLPVVVKLLHPPSHWPLIKATVGLIRNLALCPANHAPLREQGAIPRLVQLLVRAHQDTQRRTSMGGTQQQFVEGVRMEEIVEGCTGALHILARDVHNRIVIRGLNTIPLFVQLLYSPIENIQRVAAGVLCELAQDKEAAEAIEAEGATAPLTELLHSRNEGVATYAAAVLFRMSEDKPQDYKKRLSVELTSSLFRTEPMAWNETADLGLDIGAQGEALGYRQDDPSYRSFHSGGYGQDALGMDPMMEHEMGGHHPGADYPVDGLPDLGHAQDLMDGLPPGDSNQLAWFDTDL
notes: β-catenin, full length; also called GST-β-catenin; GST-tagged β-catenin
